# Measured values reported in PMC9482650, “Quantitative fragmentomics allow affinity mapping of interactomes” (Nature Communications, 2022).
# B1: GPR6, P46095 (peptide)
# chain: PFRSRSPSEV
# B2: RASSF6, Q6ZTQ3 (peptide)
# chain: KLVIKTETTV
# B3: USH1C, Q9Y6N9 (peptide)
# chain: KEYDDELTFF
# B4: FMNL3, Q8IVF7 (peptide)
# chain: DAAHHDESNC
# B5: SLC1A3, P43003 (peptide)
# chain: EKPIDSETKM
# How the values were obtained:
# Experiment in all cases: holdup assay
# Set-up in all cases: key: below the threshold = too weak to quantify, mostly under pKd 3.1 to 4
# [1] = biological target: T1, APBA1_2, Q02410
# T1 sequence (Q02410 742-832, limits assumed, looked up): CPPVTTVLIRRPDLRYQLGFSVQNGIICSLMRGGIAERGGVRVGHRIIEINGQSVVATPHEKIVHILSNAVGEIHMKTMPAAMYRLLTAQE
# [2] = biological target: NOS1, P29475
# [3] = biological target: Inadl_3, Q8NI35
# [4] = biological target: GRIP2_4, Q9C0E4
# [5] = biological target: MAGI2_5, Q86UL8
# [6] = biological target: Inadl_9, Q8NI35
# [7] = biological target: T2, HTRA4, P83105
# T2 sequence (P83105 378-476, limits assumed, looked up): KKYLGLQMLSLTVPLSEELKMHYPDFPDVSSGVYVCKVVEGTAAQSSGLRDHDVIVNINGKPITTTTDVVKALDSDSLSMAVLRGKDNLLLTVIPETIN
# [8] = biological target: ARHGEF12, Q9NZN5-2
# [9] = biological target: Inadl_4, Q8NI35
# [10] = biological target: MAGI2_4, Q86UL8
# [11] = biological target: NHERF2_2, Q15599
# [12] = biological target: T3, PDZRN3_1, Q9UPQ7
# T3 sequence (Q9UPQ7 244-349, limits assumed, looked up): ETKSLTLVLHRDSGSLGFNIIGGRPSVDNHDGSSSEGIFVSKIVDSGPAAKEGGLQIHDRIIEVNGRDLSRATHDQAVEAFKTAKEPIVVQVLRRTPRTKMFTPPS
# [13] = biological target: T4, PTPN13_1, Q12923
# T4 sequence (Q12923 1088-1188, limits assumed, looked up): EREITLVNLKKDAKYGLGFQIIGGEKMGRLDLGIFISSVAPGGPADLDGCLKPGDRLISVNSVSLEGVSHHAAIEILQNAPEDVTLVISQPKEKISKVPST
# [14] = biological target: T5, SHANK1, Q9Y566
# T5 sequence (Q9Y566 658-767, limits assumed, looked up): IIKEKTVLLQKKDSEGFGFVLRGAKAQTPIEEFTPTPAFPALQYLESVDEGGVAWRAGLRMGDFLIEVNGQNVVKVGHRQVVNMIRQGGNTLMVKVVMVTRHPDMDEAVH
# [15] = biological target: DLG5_1, Q8TDM6
# [16] = biological target: SCRIB_3, Q14160
# [17] = biological target: T6, HTRA3, P83110
# T6 sequence (P83110 354-453, limits assumed, looked up): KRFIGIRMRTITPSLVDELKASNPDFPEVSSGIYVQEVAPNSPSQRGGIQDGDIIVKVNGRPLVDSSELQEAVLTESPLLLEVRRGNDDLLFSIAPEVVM
# [18] = biological target: DLG4_3, P78352
# [19] = biological target: MAGI2_3, Q86UL8
# [20] = biological target: MAGI2_2, Q86UL8
# [21] = biological target: T7, ARHGEF11, O15085
# T7 sequence (O15085 42-136, limits assumed, looked up): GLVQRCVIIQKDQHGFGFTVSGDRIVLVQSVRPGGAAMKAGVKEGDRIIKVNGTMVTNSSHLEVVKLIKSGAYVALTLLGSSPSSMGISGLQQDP
# [22] = biological target: MAGI1_1, Q96QZ7
# [23] = biological target: FRMPD3, Q5JV73
# [24] = biological target: T8, APBA2_1, Q99767
# T8 sequence (Q99767 563-664, limits assumed, looked up): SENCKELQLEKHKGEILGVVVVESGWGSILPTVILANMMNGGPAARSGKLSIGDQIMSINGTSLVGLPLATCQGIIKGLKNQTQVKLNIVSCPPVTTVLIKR
# [25] = biological target: T9, LNX2_2, Q8N448
# T9 sequence (Q8N448 334-432, limits assumed, looked up): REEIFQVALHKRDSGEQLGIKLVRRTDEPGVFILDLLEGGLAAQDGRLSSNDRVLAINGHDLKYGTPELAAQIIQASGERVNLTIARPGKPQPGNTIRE
# [26] = biological target: MAST1, Q9Y2H9
# [27] = biological target: AHNAK1, Q09666
# [28] = biological target: LNX1_3, Q8TBB1
# [29] = plain residues with an end cap or a label only (N-terminal biotin on a linker: ttds)
# [30] = plain residues with an end cap or a label only (N-terminal biotin on a linker: ahx)
# [31] = plain residues with an end cap or a label only (N-terminal biotin on a linker: ado-ado)
# DLG5_1, Q8TDM6, sequence (Q8TDM6 617-713): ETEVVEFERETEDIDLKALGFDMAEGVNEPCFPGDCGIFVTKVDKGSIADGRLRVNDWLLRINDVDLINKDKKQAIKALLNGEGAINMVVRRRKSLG
# GRIP2_4, Q9C0E4, sequence (Q9C0E4 446-548): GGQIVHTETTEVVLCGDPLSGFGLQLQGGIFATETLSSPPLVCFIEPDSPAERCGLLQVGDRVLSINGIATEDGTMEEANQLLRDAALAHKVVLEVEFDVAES
# MAGI2_2, Q86UL8, sequence (Q86UL8 410-522): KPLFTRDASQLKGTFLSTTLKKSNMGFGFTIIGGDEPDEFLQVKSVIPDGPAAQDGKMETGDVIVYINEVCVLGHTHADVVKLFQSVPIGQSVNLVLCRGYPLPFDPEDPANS
# NHERF2_2, Q15599, sequence (Q15599 142-238): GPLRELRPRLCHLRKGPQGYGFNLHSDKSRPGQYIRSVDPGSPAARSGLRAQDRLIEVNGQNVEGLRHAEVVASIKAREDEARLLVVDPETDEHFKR
# MAST1, Q9Y2H9, sequence (Q9Y2H9 962-1065): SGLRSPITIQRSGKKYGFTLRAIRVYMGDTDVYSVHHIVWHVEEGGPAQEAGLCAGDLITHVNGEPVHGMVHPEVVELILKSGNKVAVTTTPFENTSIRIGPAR
# FRMPD3, Q5JV73, sequence (Q5JV73 12-100): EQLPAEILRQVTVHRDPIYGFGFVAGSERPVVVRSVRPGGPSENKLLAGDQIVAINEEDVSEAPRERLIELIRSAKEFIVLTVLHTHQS
# LNX1_3, Q8TBB1, sequence (Q8TBB1 500-596): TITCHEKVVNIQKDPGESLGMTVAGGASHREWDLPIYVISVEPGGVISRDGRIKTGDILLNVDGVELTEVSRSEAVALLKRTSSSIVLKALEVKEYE
# SCRIB_3, Q14160, sequence (Q14160 999-1103): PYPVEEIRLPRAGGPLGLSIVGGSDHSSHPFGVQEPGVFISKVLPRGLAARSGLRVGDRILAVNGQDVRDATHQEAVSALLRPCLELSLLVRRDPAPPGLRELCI
# ARHGEF12, Q9NZN5-2, sequence (Q9NZN5 other isoform, or with tags, fused parts or gaps): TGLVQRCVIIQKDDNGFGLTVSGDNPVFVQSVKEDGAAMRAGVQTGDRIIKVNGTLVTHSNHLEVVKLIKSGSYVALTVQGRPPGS
# Inadl_3, Q8NI35, sequence (Q8NI35 359-469): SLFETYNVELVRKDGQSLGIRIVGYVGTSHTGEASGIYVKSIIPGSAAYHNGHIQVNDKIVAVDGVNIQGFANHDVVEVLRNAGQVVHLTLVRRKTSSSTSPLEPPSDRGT
# DLG4_3, P78352, sequence (P78352 306-403): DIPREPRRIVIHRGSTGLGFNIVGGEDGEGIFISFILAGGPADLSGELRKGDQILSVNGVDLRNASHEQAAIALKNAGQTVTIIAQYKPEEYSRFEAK
# MAGI1_1, Q96QZ7, sequence (Q96QZ7 1-106): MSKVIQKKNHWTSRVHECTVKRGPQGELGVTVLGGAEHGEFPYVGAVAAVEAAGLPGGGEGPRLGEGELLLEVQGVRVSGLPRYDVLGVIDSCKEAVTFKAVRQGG
# MAGI2_5, Q86UL8, sequence (Q86UL8 915-1017): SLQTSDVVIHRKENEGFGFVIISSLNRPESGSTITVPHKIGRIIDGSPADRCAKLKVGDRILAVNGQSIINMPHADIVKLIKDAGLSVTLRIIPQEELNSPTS
# MAGI2_3, Q86UL8, sequence (Q86UL8 600-682): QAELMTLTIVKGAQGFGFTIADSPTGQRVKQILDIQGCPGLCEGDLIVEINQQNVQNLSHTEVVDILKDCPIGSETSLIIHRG
# Inadl_4, Q8NI35, sequence (Q8NI35 547-651): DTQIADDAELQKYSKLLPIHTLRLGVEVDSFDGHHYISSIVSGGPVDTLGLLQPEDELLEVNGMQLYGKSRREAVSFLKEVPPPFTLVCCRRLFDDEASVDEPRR
# MAGI2_4, Q86UL8, sequence (Q86UL8 772-865): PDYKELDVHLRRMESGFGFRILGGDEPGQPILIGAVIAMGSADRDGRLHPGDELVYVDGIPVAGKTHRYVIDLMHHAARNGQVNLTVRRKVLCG
# NOS1, P29475, sequence (P29475 9-101): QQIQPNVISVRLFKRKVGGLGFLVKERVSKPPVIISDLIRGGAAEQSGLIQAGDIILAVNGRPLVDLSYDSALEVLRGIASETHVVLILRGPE
# Inadl_9, Q8NI35, sequence (Q8NI35 1530-1615): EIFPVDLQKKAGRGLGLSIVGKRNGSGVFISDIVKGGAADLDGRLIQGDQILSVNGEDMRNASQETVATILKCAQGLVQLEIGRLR
# AHNAK1, Q09666, sequence (Q09666 4-100): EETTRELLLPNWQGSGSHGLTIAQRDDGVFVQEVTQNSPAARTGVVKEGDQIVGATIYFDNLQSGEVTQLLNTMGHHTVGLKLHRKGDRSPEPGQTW
binder,measurement,setting,value
B1,pKd,[1]; [29],3.83
same,pKd,[2]; [29],3.74
same,pKd,[3]; [29],below the threshold
same,pKd,[4]; [29],below the threshold
same,pKd,[5]; [29],below the threshold
same,pKd,[6]; [29],3.47
same,pKd,[7]; [29],below the threshold
same,pKd,[8]; [29],below the threshold
same,pKd,[9]; [29],below the threshold
same,pKd,[10]; [29],below the threshold
same,pKd,[11]; [29],below the threshold
same,pKd,[12]; [29],below the threshold
same,pKd,[13]; [29],below the threshold
same,pKd,[14]; [29],below the threshold
same,pKd,[15]; [29],below the threshold
same,pKd,[16]; [29],3.49
same,pKd,[17]; [29],below the threshold
same,pKd,[18]; [29],below the threshold
same,pKd,[19]; [29],below the threshold
same,pKd,[20]; [29],below the threshold
same,pKd,[21]; [29],below the threshold
same,pKd,[22]; [29],below the threshold
same,pKd,[23]; [29],below the threshold
same,pKd,[24]; [29],below the threshold
same,pKd,[25]; [29],below the threshold
same,pKd,[26]; [29],below the threshold
same,pKd,[27]; [29],below the threshold
same,pKd,[28]; [29],below the threshold
B2,pKd,[1]; [29],below the threshold
same,pKd,[2]; [29],3.58
same,pKd,[3]; [29],below the threshold
same,pKd,[4]; [29],below the threshold
same,pKd,[5]; [29],3.77
same,pKd,[6]; [29],3.54
same,pKd,[7]; [29],3.46
same,pKd,[8]; [29],3.82
same,pKd,[9]; [29],below the threshold
same,pKd,[10]; [29],4.45
same,pKd,[11]; [29],below the threshold
same,pKd,[12]; [29],3.82
same,pKd,[13]; [29],below the threshold
same,pKd,[14]; [29],below the threshold
same,pKd,[15]; [29],below the threshold
same,pKd,[16]; [29],4.3
same,pKd,[17]; [29],below the threshold
same,pKd,[18]; [29],4.39
same,pKd,[19]; [29],3.73
same,pKd,[20]; [29],5.11
same,pKd,[21]; [29],3.91
same,pKd,[22]; [29],below the threshold
same,pKd,[23]; [29],below the threshold
same,pKd,[24]; [29],below the threshold
same,pKd,[25]; [29],4.48
same,pKd,[26]; [29],4.68
same,pKd,[27]; [29],below the threshold
same,pKd,[28]; [29],below the threshold
B3,pKd,[1]; [30],below the threshold
same,pKd,[2]; [30],below the threshold
same,pKd,[3]; [30],3.89
same,pKd,[4]; [30],below the threshold
same,pKd,[5]; [30],3.96
same,pKd,[6]; [30],below the threshold
same,pKd,[7]; [30],below the threshold
same,pKd,[8]; [30],below the threshold
same,pKd,[9]; [30],below the threshold
same,pKd,[10]; [30],3.51
same,pKd,[11]; [30],5.32
same,pKd,[12]; [30],below the threshold
same,pKd,[13]; [30],below the threshold
same,pKd,[14]; [30],5.25
same,pKd,[15]; [30],below the threshold
same,pKd,[16]; [30],3.61
same,pKd,[17]; [30],below the threshold
same,pKd,[18]; [30],below the threshold
same,pKd,[19]; [30],below the threshold
same,pKd,[20]; [30],below the threshold
same,pKd,[21]; [30],below the threshold
same,pKd,[22]; [30],below the threshold
same,pKd,[23]; [30],4.7
same,pKd,[24]; [30],below the threshold
same,pKd,[25]; [30],below the threshold
same,pKd,[26]; [30],4.52
same,pKd,[27]; [30],below the threshold
same,pKd,[28]; [30],below the threshold
B4,pKd,[1]; [31],below the threshold
same,pKd,[2]; [31],below the threshold
same,pKd,[3]; [31],below the threshold
same,pKd,[4]; [31],below the threshold
same,pKd,[5]; [31],below the threshold
same,pKd,[6]; [31],below the threshold
same,pKd,[7]; [31],below the threshold
same,pKd,[8]; [31],below the threshold
same,pKd,[9]; [31],below the threshold
same,pKd,[10]; [31],below the threshold
same,pKd,[11]; [31],below the threshold
same,pKd,[12]; [31],below the threshold
same,pKd,[13]; [31],below the threshold
same,pKd,[14]; [31],below the threshold
same,pKd,[15]; [31],below the threshold
same,pKd,[16]; [31],below the threshold
same,pKd,[17]; [31],below the threshold
same,pKd,[18]; [31],below the threshold
same,pKd,[19]; [31],below the threshold
same,pKd,[20]; [31],below the threshold
same,pKd,[21]; [31],below the threshold
same,pKd,[22]; [31],below the threshold
same,pKd,[23]; [31],below the threshold
same,pKd,[24]; [31],below the threshold
same,pKd,[25]; [31],below the threshold
same,pKd,[26]; [31],below the threshold
same,pKd,[27]; [31],below the threshold
same,pKd,[28]; [31],below the threshold
B5,pKd,[1]; [31],below the threshold
same,pKd,[2]; [31],below the threshold
same,pKd,[3]; [31],below the threshold
same,pKd,[4]; [31],below the threshold
same,pKd,[5]; [31],below the threshold
same,pKd,[6]; [31],below the threshold
same,pKd,[7]; [31],below the threshold
same,pKd,[8]; [31],below the threshold
same,pKd,[9]; [31],below the threshold
same,pKd,[10]; [31],below the threshold
same,pKd,[11]; [31],4.47
same,pKd,[12]; [31],below the threshold
same,pKd,[13]; [31],below the threshold
same,pKd,[14]; [31],3.76
same,pKd,[15]; [31],below the threshold
same,pKd,[16]; [31],3.58
same,pKd,[17]; [31],below the threshold
same,pKd,[18]; [31],below the threshold
same,pKd,[19]; [31],below the threshold
same,pKd,[20]; [31],below the threshold
same,pKd,[21]; [31],below the threshold
same,pKd,[22]; [31],below the threshold
same,pKd,[23]; [31],below the threshold
same,pKd,[24]; [31],below the threshold
same,pKd,[25]; [31],below the threshold
same,pKd,[26]; [31],4.67
same,pKd,[27]; [31],below the threshold
same,pKd,[28]; [31],below the threshold
